Results on one molecule are retold here after patent publication EP4737479A1 (Bio-Thera Solutions, Ltd., dated 2026).

This assay deals with T1, antigen 4-1BB (Sino Biological, Cat. No. 10041-H08H) (UniProt Q07011 24-186).
T1 construct: Bought protein used as SPR analyte; also called CD137
As to the kind of experiment: SPR (Biacore T200), sample captured on the chip by Fc, 4-1BB as analyte. For orientation: Surface plasmon resonance follows binding to a sensor surface in real time, without labels.

T1 sequence (Q07011 24-186 limits assumed): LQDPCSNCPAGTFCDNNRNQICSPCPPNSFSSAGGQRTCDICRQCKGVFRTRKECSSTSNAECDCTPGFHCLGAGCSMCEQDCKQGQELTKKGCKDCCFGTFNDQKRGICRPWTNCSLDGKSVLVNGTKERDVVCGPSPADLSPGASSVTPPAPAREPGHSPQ

B1: Urelumab (antibody, V domains shown)
VH: QVQLQQWGAGLLKPSETLSLTCAVYGGSFSGYYWSWIRQSPEKGLEWIGEINHGGYVTYNPSLESRVTISVDTSKNQFSLKLSSVTAADTAVYYCARDYGPGNYDWYFDLWGRGTLVTVSS
VL: EIVLTQSPATLSLSPGERATLSCRASQSVSSYLAWYQQKPGQAPRLLIYDASNRATGIPARFSGSGSGTDFTLTISSLEPEDFAVYYCQQRSNWPPALTFGGGTKVEIK
By Kd is commonly meant the equilibrium constant for the complex coming apart. The low end stands for tighter binding, the high end for weaker binding. Usually koff stands for the rate constant with which the complex falls apart. A lower koff goes with slow dissociation. As usually defined, the kon is a measure of how fast the partners come together. B1 had a Kd of 3.22 nM, a koff of 0.00159 s⁻¹ and an association rate constant (kon) of 496000 M⁻¹ s⁻¹.
